According to publication PMC11409006 (Computational and Structural Biotechnology Journal, 2024):

B1: camelid single domain antibody sdAbCSP1 (VHH)
VHH: QVQLQESGGGLVQAGGSLRLSCAASGRTFSSYSMGWFRLVPGKEREFVARISSSGGNTYYADSVRGRFTISRDNAKNTVYLQMNSLKPEDTAVYYCAADLLQFGRSSRAADYDYWGQGTQVTVSS
notes: full length is aa1-144; CDR1 aa25-33, CDR2 aa52-57, HV4 aa74-77, CDR3 aa100-118; aa1-125 is the form without non-structured extensions; source: recombinantly expressed
B2: sdAbCSP1 (VHH)
VHH: B1 VHH
notes: 144 residues (aa1-144); CDR1 aa25-33, CDR2 aa52-57, HV4 aa74-77, CDR3 aa100-118; aa106-108 are SSR; aa1-125 are the folded domain; also called camelid single domain antibody sdAbCSP1; pQ-sdAbCSP1 (form with N-terminal pyro-glutamine); source: recombinantly expressed

Legend:
Conditions in all cases: both partners purified
[1] = target: T1, C-terminal domain of the Plasmodium falciparum circumsporozoite protein, PfCSP-Cext (Plasmodium falciparum; strain not …, UniProt Q7K740); test: ITC; sdAbCSP1 (45 µM) titrated into the cell with PfCSP-C (4 µM); 20 mM Tris-HCl, 150 mM NaCl, pH 8.0; 25 °C; one set of sites model; triplicate
T1 construct: Plasmodium falciparum circumsporozoite protein, C-terminal domain (alpha-TSR) with unstructured N- and C-terminal extensions; the compactly folded PfCSP-C domain is aa39-100 of PfCSP-Cext; K42, K45, E46, L48, N49 of PfCSP-Cext equal K314, K317, E318, L320, N321 of PfCSP; numbers count on: the construct PfCSP-Cext; also called PfaCSP-Cext; PfCSP-C (as named in the ITC sections); source: …

[2] = target: T1, C-terminal domain of the Plasmodium …; test: native MS; ITEM-TWO: nanoESI of the mixture (sdAbCSP1 : PfCSP-Cext = 1 : 3.4) in 200 mM ammonium acetate, pH 6.7; complex ions isolated and dissociated in the gas phase by stepwise raised collision cell voltage (2-120 V); apparent gas-phase constants; triplicate
[3] = target: T2, PfCSP-Cext (Plasmodium falciparum, UniProt Q7K740); test: ITC; sdAbCSP1 (45 µM) titrated into the cell with PfCSP-C (4 µM); 25 °C; 20 mM Tris-HCl, 150 mM NaCl, pH 8.0; one set of sites model; triplicate
T2 construct: circumsporozoite protein (PfCSP) of Plasmodium falciparum, C-terminal domain with non-structured N- and C-terminal extensions; the compactly folded PfCSP-C domain is aa39-100; aa114-127 contain the His-tag; numbers count on: the PfCSP-Cext construct; also called C-terminal domain of the Plasmodium falciparum circumsporozoite protein; PfCSP-C (so called in the ITC methods and results); source: E. …
T2 sequence (Q7K740 310-374): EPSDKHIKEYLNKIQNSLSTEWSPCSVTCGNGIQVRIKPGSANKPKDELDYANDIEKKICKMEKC

T1 sequence (Q7K740 310-374): as above

Binder | Kd [1] [nM] | dH [1] [kcal/mol] | KD m0g# (apparent quasi equilibrium constant of gas-phase complex dissociation) [2] [s⁻¹] | dH m0g# (apparent enthalpy of gas-phase complex dissociation) [2] [kcal/mol] | kD m0g# (apparent rate constant of gas-phase complex dissociation) [2] | stoichiometry N [3]
B1 | 0.5 | -8.34 | 3.7e-12 | 12 | 1e+10 Ø (unitless number) | 
B2 |  |  |  |  |  | 0.9 ± 0.12
